Experimental data: article PMC5760710, “The evolution of substrate discrimination in macrolide antibiotic resistance enzymes” (Nature Communications, 2018)
Converted amounts (≈) assume the structure as drawn.

Legend:
[1] = tested on: T1, E. coli BW25113 ΔbamBΔtolC; assay: microbe, parasite or virus in culture; details: Escherichia coli, BW25113, 24 h; empty vector
T1 construct: BW25113 ΔbamBΔtolC empty vector pGDP4
Procedure: mphB was codon optimized, synthetized as a gBlock (IDT) and cloned into pET28a with an N-terminal histidine tag. The codon optimized mphB sequence is in Supplementary Table 17. mphI was previously cloned into pET22b[36]. pGDP4 is a derivative of pET28a with the multiple-cloning site under the control of the constitutive lac promoter. mphI was subcloned into pGDP4 using the XbaI and XhoI restriction sites. E. coli was routinely cultured on LB-Lennox (Bioshop) at 37 °C overnight, and either 100 µg mL^−1 ampicillin or 50 µg mL^−1 kanamycin was used for plasmid selection. E. coli TOP10 (Invitrogen) was used for routine cloning experiments and susceptibility testing of mphs cloned into pGDP4. E. coli BL21(DE3) (Stratagene, USA)was used for protein overexpression experiments. E. coli BW25113 ΔbamBΔtolC is an antibiotic hypersensitive, and was used for susceptibility testing of Mphs cloning into pGDP4. Antibiotic susceptibility testing was performed according to the Clinical and Laboratory Standards Institute guidelines[74] for determining minimal inhibitory concentration (MIC) in 96-well plates (Sarstedt, Germany) in duplicate. MIC values were reproducible. A saline suspension of OD600 of 0.1 was made from 2–3 colonies of a fresh overnight, and diluted 1:200 into Mueller-Hinton Broth (BD Biosciences). […] Susceptibility assays were performed at least two independent times.

MphH = biological target: T2, MphH (Brachybacterium faecium, UniProt C7MEP1); assay: X-ray crystal structure; assay type: binding
T2 construct: pMCSG53, N-terminal His6 tag and TEV site, crystallized

MphI = tested on: T3, MphI; assay: PK/LDH-coupled continuous assay; assay type: biochemical, Paenibacillus sp. LC231; details: 10 mM MgCl2, 40 mM KCl, pH 7.5
T3 construct: full-length, His-tagged in pET22b, expressed in E. coli BL21(DE3), Ni-NTA purified; primers span nt 1-927

MphB = biological target: T4, MphB (Escherichia coli, UniProt A0A0H3EUF3); assay: biochemical; set-up: PK/LDH-coupled continuous assay of macrolide phosphorylation; steady-state kinetics, NADH absorbance
T4 construct: codon-optimized gene, N-terminal His tag in pET28a, expressed in E. coli BL21(DE3), Ni-NTA purified
Procedure: (§1) Steady-state kinetics for Mphs were measured using the continuous PK/LDH-coupled assay[27],[32],[36],[71]. Reactions were performed in 96-well plates (Nunc, Thermo Scientific) using Spectramax Plus384 (Molecular Devices) in duplicate. Individual reactions were 100 µL and contained 50 mM HEPES pH 7.5, 40 mM KCl, 10 mM MgCl2, 0.2 mM NADH, 3.5 mM PEP, and 4.8 U PK/LDH (pyruvate kinase/lactate dehydrogenase). […] For determining the Km for macrolides, GTP was maintained at 200 µM and macrolides were varied between 0.49 µM and 1000 µM. Enzyme efficiency varied considerably between substrates, and therefore some enzymes were used at different concentrations depending on the substrate in order to produce a linear range suitable for Km determination. These concentrations were as follows; MphB 140 nM (most substrates), MphB 36 nM (josamycin), MphI 45 nM (descladinose macrolides), MphI 1.44 µM (C3 cladinose macrolides), Azi_1.1 90 nM (all substrates), Ery_1 (all substrates), MphK 680 nM (all substrates), MphIS111R/T166E/P211L 90 nM (descladinose macrolides), MphIS111R/T166E/P211L 1.43 µM (C3 cladinose macrolides), MphIM40A/S111R/T166E 22 nM (descladinose macrolides), MphIM40A/S111R/T166E 430 nM (C3 cladinose macrolides), MphIS111R/T166E 22 nM (descladinose macrolides), MphIS111R/T166E 1.43 µM (C3 cladinose macrolides). Enzyme kinetics experiments were performed at least two independent times. Steady-state kinetics of Mphs

[2] = tested on: CC[C@H]1OC(=O)[C@H](C)[C@@H](O[C@H]2C[C@@](C)(OC)[C@@H](O)[C@H](C)O2)[C@H](C)[C@@H](O[C@@H]2O[C@H](C)C[C@H](N(C)C)[C@H]2O)[C@](C)(O)C[C@@H](C)CN(C)[C@H](C)[C@@H](O)[C@]1(C)O; assay: PK/LDH-coupled continuous assay; assay type: biochemical, Escherichia coli; details: 200 uM GTP, 10 mM MgCl2, 40 mM KCl, pH 7.5
[3] = tested on: CC[C@H]1OC(=O)[C@H](C)[C@@H](O[C@H]2C[C@@](C)(OC)[C@@H](O)[C@H](C)O2)[C@H](C)[C@@H](O[C@@H]2O[C@H](C)C[C@H](N(C)C)[C@H]2O)[C@](C)(O)C[C@@H](C)C(=O)[C@H](C)[C@@H](O)[C@]1(C)O; assay: PK/LDH-coupled continuous assay; assay type: biochemical, Escherichia coli; details: 200 uM GTP, 10 mM MgCl2, 40 mM KCl, pH 7.5
[4] = tested on: CC[C@H]1OC(=O)[C@H](C)C(=O)[C@H](C)[C@@H](O[C@@H]2O[C@H](C)C[C@H](N(C)C)[C@H]2O)[C@](C)(OC)C[C@@H](C)C(=O)[C@H](C)[C@H]2N(CCCCn3cnc(-c4cccnc4)c3)C(=O)O[C@]12C; assay: PK/LDH-coupled continuous assay; assay type: biochemical, Escherichia coli; details: 200 uM GTP, 10 mM MgCl2, 40 mM KCl, pH 7.5
[5] = tested on: Nc1nc2c(ncn2[C@@H]2O[C@H](COP(=O)(O)OP(=O)(O)OP(=O)(O)O)[C@@H](O)[C@H]2O)c(=O)[nH]1; assay: PK/LDH-coupled continuous assay; assay type: biochemical, Escherichia coli; details: 100 uM telithromycin, 10 mM MgCl2, 40 mM KCl, pH 7.5
[6] = tested on: CC[C@H]1OC(=O)[C@H](C)[C@@H](O[C@H]2C[C@@](C)(OC)[C@@H](O)[C@H](C)O2)[C@H](C)[C@@H](O[C@@H]2O[C@H](C)C[C@H](N(C)C)[C@H]2O)[C@](C)(O)C[C@@H](C)/C(=N\OCOCCOC)[C@H](C)[C@@H](O)[C@]1(C)O; assay: purified protein, by the assay type; set-up: continuous PK/LDH-coupled NADH kinase assay, steady-state Km, macrolide or GTP varied; details: pH 7.5
Procedure: as §1, with “times.” for “times. Steady-state kinetics of Mphs”

[7] = tested on: CC[C@H]1OC(=O)C[C@@H](O)[C@H](C)[C@@H](O[C@@H]2O[C@H](C)[C@@H](O[C@H]3C[C@@](C)(O)[C@@H](O)[C@H](C)O3)[C@H](N(C)C)[C@H]2O)[C@@H](CC=O)C[C@@H](C)C(=O)/C=C/C(C)=C/[C@@H]1CO[C@@H]1O[C@H](C)[C@@H](O)[C@@H](OC)[C@H]1OC; assay: purified protein, by the assay type; set-up: continuous PK/LDH-coupled NADH kinase assay, steady-state Km, macrolide or GTP varied; details: pH 7.5
Procedure: as §1, with “times.” for “times. Steady-state kinetics of Mphs”

[8] = tested on: CC[C@H]1OC(=O)[C@H](C)[C@@H](O[C@H]2C[C@@](C)(OC)[C@@H](O)[C@H](C)O2)[C@H](C)[C@@H](O[C@@H]2O[C@H](C)C[C@H](N(C)C)[C@H]2O)[C@](C)(O)C[C@@H](C)CN(C)[C@H](C)[C@@H](O)[C@]1(C)O; assay: PK/LDH-coupled continuous assay; assay type: biochemical, Bacillus subtilis; details: 200 uM GTP, 10 mM MgCl2, 40 mM KCl, pH 7.5
[9] = tested on: CC[C@H]1OC(=O)[C@H](C)C(=O)[C@H](C)[C@@H](O[C@@H]2O[C@H](C)C[C@H](N(C)C)[C@H]2O)[C@](C)(OC)C[C@@H](C)C(=O)[C@H](C)[C@H]2N(CCCCn3cnc(-c4cccnc4)c3)C(=O)O[C@]12C; assay: PK/LDH-coupled continuous assay; assay type: biochemical, Bacillus subtilis; details: 200 uM GTP, 10 mM MgCl2, 40 mM KCl, pH 7.5
[10] = tested on: Nc1nc2c(ncn2[C@@H]2O[C@H](COP(=O)(O)OP(=O)(O)OP(=O)(O)O)[C@@H](O)[C@H]2O)c(=O)[nH]1; assay: PK/LDH-coupled continuous assay; assay type: biochemical, Bacillus subtilis; details: 100 uM telithromycin, 10 mM MgCl2, 40 mM KCl, pH 7.5

Molecule: CC[C@H]1OC(=O)[C@H](C)[C@@H](O[C@H]2C[C@@](C)(OC)[C@@H](O)[C@H](C)O2)[C@H](C)[C@@H](O[C@@H]2O[C@H](C)C[C@H](N(C)C)[C@H]2O)[C@](C)(OC)C[C@@H](C)C(=O)[C@H](C)[C@@H](O)[C@]1(C)O [Clarithromycin]
- MIC [1]: 0.5 mg/L (≈ 0.668 µM)

Molecule: Nc1nc2c(ncn2[C@@H]2O[C@H](COP(=O)(O)OP(=O)(O)O)[C@@H](O)[C@H]2O)c(=O)[nH]1 [GDP]
- X-ray crystal structure (MphH; nucleotide site, GDP + Pi, crystallized with 5 mM azithromycin and 5 mM GMPPCP): MphH (native) GDP + Pi complex (5UXC)

Molecule: Nc1nc2c(ncn2[C@@H]2O[C@H](COP(=O)(O)OP(=O)(O)OP(=O)(O)O)[C@@H](O)[C@H]2O)c(=O)[nH]1 [GTP]
- Km (MphI; 100 uM telithromycin): 10 ± 1 µM

Molecule: NC[C@H]1O[C@H](O[C@H]2[C@H](O)[C@@H](O[C@H]3O[C@H](CO)[C@@H](O)[C@H](N)[C@H]3O)[C@H](N)C[C@@H]2N)[C@H](O)[C@@H](O)[C@@H]1O [Kanamycin]
- MIC [1]: 1 mg/L (≈ 2.06 µM)

Molecule: CC[C@H]1OC(=O)C[C@@H](O)[C@H](C)[C@@H](O[C@@H]2O[C@H](C)[C@@H](O[C@H]3C[C@@](C)(O)[C@@H](O)[C@H](C)O3)[C@H](N(C)C)[C@H]2O)[C@@H](CC=O)C[C@@H](C)C(=O)/C=C/C(C)=C/[C@@H]1CO[C@@H]1O[C@H](C)[C@@H](O)[C@@H](OC)[C@H]1OC [Tylosin]
- Ki (MphB): 350 ± 160 µM
- MIC [1]: 2 mg/L (≈ 2.18 µM)

Molecule: CC[C@H]1OC(=O)[C@H](C)[C@@H](O[C@H]2C[C@@](C)(OC)[C@@H](O)[C@H](C)O2)[C@H](C)[C@@H](O[C@@H]2O[C@H](C)C[C@H](N(C)C)[C@H]2O)[C@](C)(O)C[C@@H](C)CN(C)[C@H](C)[C@@H](O)[C@]1(C)O [azithromycin]
- Km (MphI; 200 uM GTP): 56 ± 3 µM
- X-ray crystal structure (MphH; macrolide-binding cleft, 5 mM azithromycin): MphH (Se-Met) azithromycin complex (5UXD)
- MIC [1]: 0.063 mg/L (≈ 0.0841 µM)

Molecule: CC[C@H]1OC(=O)[C@H](C)[C@@H](O[C@H]2C[C@@](C)(OC)[C@@H](O)[C@H](C)O2)[C@H](C)[C@@H](O[C@@H]2O[C@H](C)C[C@H](N(C)C)[C@H]2O)[C@](C)(O)C[C@@H](C)C(=O)[C@H](C)[C@@H](O)[C@]1(C)O [erythromycin]
- Km (MphI; 200 uM GTP): 110 ± 10 µM
- MIC [1]: 0.5 mg/L (≈ 0.681 µM)

Molecule: CC[C@H]1OC(=O)[C@H](C)[C@@H](O[C@H]2C[C@@](C)(OC)[C@@H](O)[C@H](C)O2)[C@H](C)[C@@H](O[C@@H]2O[C@H](C)C[C@H](N(C)C)[C@H]2O)[C@](C)(O)C[C@@H](C)/C(=N\OCOCCOC)[C@H](C)[C@@H](O)[C@]1(C)O [roxithromycin]
- Ki (MphB): 960 ± 510 µM
- Km (MphI; 200 uM GTP): 32 ± 4 µM

Molecule: CC[C@H]1OC(=O)[C@H](C)C(=O)[C@H](C)[C@@H](O[C@@H]2O[C@H](C)C[C@H](N(C)C)[C@H]2O)[C@](C)(OC)C[C@@H](C)C(=O)[C@H](C)[C@H]2N(CCCCn3cnc(-c4cccnc4)c3)C(=O)O[C@]12C [telithromycin]
- Km (MphI; 200 uM GTP): 3 ± 0.5 µM
- MIC [1]: 0.125 mg/L (≈ 0.154 µM)

Molecule: MphB (Escherichia coli O83:H1 str. NRG 857C)
- Km [2]: 2.9 ± 0.36 µM
- kcat [2]: 0.189 ± 0.004 s⁻¹
- Km [3]: 1.6 ± 0.2 µM
- kcat [3]: 0.0412 ± 0.0009 s⁻¹
- Km [4]: 6.6 ± 1.8 µM
- kcat [4]: 0.77 ± 0.04 s⁻¹
- Km [5]: 8.3 ± 0.45 µM
- kcat [5]: 0.602 ± 0.008 s⁻¹

Molecule: MphK (Bacillus subtilis subsp. subtilis str. 168)
- Km [6]: 100 ± 25 µM
- kcat [6]: 0.005 ± 0.0004 s⁻¹
- kcat/Km [6]: 49 M⁻¹ s⁻¹
- Km [7]: 6.3 ± 2.4 µM
- kcat [7]: 0.0022 ± 0.0002 s⁻¹
- kcat/Km [7]: 350 M⁻¹ s⁻¹
- Km [8]: 940 ± 320 µM
- kcat [8]: 0.025 ± 0.005 s⁻¹
- Km [9]: 4.2 ± 0.45 µM
- kcat [9]: 0.056 ± 0.001 s⁻¹
- Km [10]: 17 ± 1 µM
- kcat [10]: 0.0491 ± 0.0004 s⁻¹
